Measured values published in patent US20200268795A1, “INTERFERON-GAMMA ATTENUATES ANTI-TUMOR IMMUNE RESPONSE TO CHECKPOINT BLOCKADE” (The Regents of the University of California, priority 2017, published 2020).

B1: recombinant IFN-γ: Recombinant murine IFN-γ (Peprotech) (protein, UniProt P01580 23-155, looked up)
Interferon gamma: HGTVIESLESLNNYFNSSGIDVEEKSLFLDIWRNWQKDGDMKILQSQIISFYLRLFEVLKDNQAISNNISVIESHLITTFFSNSKAKKDAFMSIAKFEVNNPQVQRQAFNELIRVVHQLLPESSLRKRKRSRC

Experiments:
[1] = system: peripheral blood mononuclear cells from a melanoma patient; assay: Patient PBMC stimulated in vitro with IFN-γ, apoptosis of CD8+ T cells; type: cell-based, human; conditions: different concentrations of IFN-γ; FIG. 5D
Description: It has been shown that T cell homeostasis can be achieved by down-modulation of antigen specific T cell receptor (TCR) signaling (A. M. Gallegos et al., Nature immunology 17, 379-386 (2016)). To investigate whether combination treatment eliminated different T cell clones depended on the strength of TCR binding to cognate cancer epitope, we gated on CD8 subsets and investigated Spas-1hi versus Spas-11o CD8+ T cell clones (FIG. 12C). […] Finally, peripheral blood mononuclear cells from a melanoma patient that received nivolumab immunotherapy were isolated and cultured in vitro with different concentrations of IFN-γ stimulation.
Splenocytes were harvested from TRAMP-C2 bearing C57BL/6j mice on day 50 and T cells were purified by magnetic beads according to the manufacturer's protocol (Miltenyi Biotec Cat 130-095-130). Cells were checked for over 90% purity. Purified T cells were suspend in DMEM (UCSF cell culture core) +10% fetal bovine serum (Lonza Cat 14-501F) +1% penicillin/streptomycin (UCSF cell culture core)+murine 20 IU IL-2 (Peprotech Cat 212-12), and seeded in 96 wells at 2×10^5 cells per well. Recombinant murine IFN-γ (Peprotech Cat 212-12) was added into the wells at indicated concentrations. Cells were cultured for 12-72 hours and analyzed by flow cytometry. […] Cells were harvested and analyzed by flow cytometry 72 hours after incubation.

[2] = system: T cells purified from TRAMP-C2 tumor bearing mice; assay: In vitro T cell cultures stimulated with recombinant IFN-γ, active Caspase-3; type: cell-based; conditions: 72 hours after IFN-γ stimulation; FIG. 5B
Protocol: We hypothesized that the loss of Spas-1 specific CD8+ T cells may be related to increased IFN-γ signaling. […] To further evaluate the effects of IFN-γ on antigen specific T cells, T cells were purified from spleens of tumor-bearing mice and stimulated with different concentrations of recombinant IFN-γ in vitro (FIG. 5A). 72 hours after the stimulation, the level of active Caspase-3 expression was examined among T cells subsets, including naïvee T cells (CD45+CD8+CD44-CD62L+), antigen specific T cells (CD45+CD8+Spas-1), and effector T cells (CD45+CD8+CD44+CD62L-). Activated effector T cells and antigen specific T cells were more susceptible to IFN-γ induced active Caspase-3 expression compared to naïvee T cells (FIG. 5B; 2297.33±305.84 versus 2281.67±305.89 versus 723±17.54; P<0.001).
Splenocytes were harvested from TRAMP-C2 bearing C57BL/6j mice on day 50 and T cells were purified by magnetic beads according to the manufacturer's protocol (Miltenyi Biotec Cat 130-095-130). Cells were checked for over 90% purity. Purified T cells were suspend in DMEM (UCSF cell culture core) +10% fetal bovine serum (Lonza Cat 14-501F) +1% penicillin/streptomycin (UCSF cell culture core)+murine 20 IU IL-2 (Peprotech Cat 212-12), and seeded in 96 wells at 2×10^5 cells per well. Recombinant murine IFN-γ (Peprotech Cat 212-12) was added into the wells at indicated concentrations. Cells were cultured for 12-72 hours and analyzed by flow cytometry. For the patient sample, peripheral blood mononuclear cells (PBMCs) were isolated by Ficoll (Sigma Cat F4375) and PBMCs were seeded in 96 wells at 2×10^5 cells per well supplemented with 20 IU human IL-2 (Peprotech Cat 200-02). Recombinant human IFN-γ (Peprotech Cat 212-12) was added to the wells. Cells were harvested and analyzed by flow cytometry 72 hours after incubation.
The flow cytometry protocols were previously described (Sckisel et al., 2015). […] Flow cytometry was performed on Fortessa X20 Dual, and data analyzed by FlowJo software (TreeStar). […]

Row | Molecule | apoptosis (Annexin V) in CD8+ T cells [1] | active Caspase-3 expression, antigen specific T cells (CD45+CD8+Spas-1) [2] | active Caspase-3 expression, effector T cells (CD45+CD8+CD44+CD62L-) [2] | active Caspase-3 expression, naïve T cells (CD45+CD8+CD44-CD62L+) [2]
1 | IFN-γ: Recombinant human IFN-γ (Peprotech) added to patient PBMCs | gradual increase in apoptosis |  |  | 
2 | B1 |  | 2281.67±305.89 | 2297.33±305.84 | 723±17.54
